The series is described as follows: yeast display, Sf9 membrane polyspecificity reagent, FACS + sequencing; frameworks hold sequencing errors. The gist of the method: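 In a synthetic yeast display library (Saccharomyces cerevisiae BJ5465), nanobody expression was induced with galactose for 36–48 hours. FACS gates were set low and high (top ~1%) using anti-HA fluorescence for expression and streptavidin fluorescence for binding of the Sf9 membrane reagent. Each polyreactivity label is drawn from the gate of origin.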
In the case of “QVQLVESGGGLFQAGGSLRLSCAASGISFWSYDMGWYRQAPGKERELVAAISRGGESTYYADSVKGRFTISRDLAKNTVYVQMNSLKPEDTAVYYCPALRPREEYYWGQGTQVTVSS”, the “polyreactivity (PSR sort gate)” value is “high polyreactivity”. For “QVQLVESGGGLFQAGGSLRLSCAASGITFERYTMGWYRQAPGKERELVAAIRGSGGTYYADSVKGRFTISRENAKNTVYLQMNSLKPEDTAVYYCNAVLWVYYHWPYDYWGQGTQVTVSS” the value was “high polyreactivity”; for “QVQLVESGGGLFQAGGSLRLSCAASGLIFRPYAMAWSRQAPGTERELVAAIRGSGGRTYYADSVKGRFTISRDNEKNTVYLQMNSLKPEDTAVYYCAVDVGRHTGYYYWGQGTQVTVSS”, “high polyreactivity”; for “QVQLVESGGGLFQAGGSLRLSCAASGRIFGAYTKRSYRQAPGKERELVAAITGRGGGTYYADSVKGRFTISRDNAKNTVYLQMNSLKPEDTAVYYCNVKLYYYYFRMYYWGQGTQVTVSS”, “low polyreactivity”.

As for “QVQLVESGGGLFQAGGSLRLSCAASGRIFGDNGMGWYRQAPGKERELVTYADSVKGRFTISRDNAKNTVYLQMNSLKPEDTAVYYCNKDPPRLSGLDENYWGQGTQVTVSS”, the “polyreactivity (PSR sort gate)” value is “low polyreactivity”. Then “QVQLVESGGGLFQAGGSLRLSCAASGRIFGIYAMGWYRQAPGKERELVAAITRGSTYYADSVKGRFTISRDNAKNTVYLQMNSLKPEDTAVYYCNARPRVPGVLYLYDYLGQGTQVTVSS”, with “high polyreactivity”; and “QVQLVESGGGLFQAGGSLRLSCAASGRIFQYHAMGWYRQAPGKERELVAAIRRGRGSTYYADSVKGRFTISRDYAKNTVYLQMNSLKPVDTAVYYCAARRKRVSFYPEYDFWGQGTQVTVSS”, with “low polyreactivity”; and “QVQLVESGGGLFQAGGSLRLSCAASGRIFWNYAMGWYRQAPGKERELVASINWSGGSTYYADSVKGRFTISRDNAKNTVYLQMNSLKPEDTAVYYCNKDGRVYLDHDYWGQGTQVTVSS”, with “low polyreactivity”.

As for “QVQLVESGGGLFQAGGSLRLSCAASGRIYRFYAMGWYRQAPGKERELVAAISASGGSTYYADSVKGRFTSSRDNAKNTVYLQMISLKPEVTAVYYCAAYSWGGGYYWGQGTQVTVSS”, the “polyreactivity (PSR sort gate)” value is “high polyreactivity”. For “QVQLVESGGGLFQAGGSLRLSCAASGRTFNFNVMGWYRQAPGKERELVAAMSKSTGSTFYADSVKGRFTISRDNAKNTVYLQMNSLKPEDTAGYYCAAKPSRSLYYYWGQGTQVTVSS” the value was “high polyreactivity”; for “QVQLVESGGGLFQAGGSLRLSCAASGRTFRTNAMGWYRQAPGKERELVAAITRSGGSTYADSVKGRFTISRDNAKNTVYLQMNSLKPEDTAVYYCATTRDWVYNYWGQGTQVTVSS”, “low polyreactivity”; for “QVQLVESGGGLFQAGGSLRLSCAASGRTFWRYAMAWYRQAPGKERELVARISWRGGSTNYADSVKGRFTISRDNAKNTVYLQMNSLKPAETAVYYFNAEVLNYLVFGYQLGYDYWGQGTQGTVSS”, “low polyreactivity”. For “QVQLVESGGGLFQAGGSLRLSCAASGRTFYNNAMGWYRQAPGKERELVATINNRGGTTYYADSVKGRFTISRDNAKNTVYLQMNSLKPEDTAVYYCAKSAQRYSYRYYYWGQGTQVTVSS”, the “polyreactivity (PSR sort gate)” value is “high polyreactivity”. In the case of “QVQLVESGGGLFQAGGSLRLSCAASGRTFYYYAMGWYRQAPGKERELVASISRTGGPTSYADSVKGRFTISRDTAKNPVYLQMNSLKPEDTAVYYCATRRRVYSGYDYWGQGTQVTVSS”, the “polyreactivity (PSR sort gate)” value is given as “high polyreactivity”. For “QVQLVESGGGLFQAGGSLRLSCAASGSIFEFNAMGWYRQAPGKERELVAGITNSGSSTYYADSVKGRLTISRDHAKNTVYLQMNSLKPEDTAVFYCNARLSRWRRRPYDYWGQGTQVTVSS”, the “polyreactivity (PSR sort gate)” value is reported as “high polyreactivity”. “QVQLVESGGGLFQAGGSLRLSCAASGSNFDYNAMGWYRPAHGKERELVAAITSTDSTYADSVKGRFTISRDTAKNTVYLQMNRLKPEDTAVYYCAAEDVIYYLTGQWREYDYWGQGTQVTVSS”: the “polyreactivity (PSR sort gate)” value is “low polyreactivity”.

Take “QVQLVESGGGLFQAGGSLRLSCAASGSPFSSYAIGWYRQAPGKERELVAAISYRGTRTRYADSVKGRFTISRDNAKNTVYLQMNSLKPEDTAVYDCAADRTFYGIRFDYWGQGTQVTVSS”: the “polyreactivity (PSR sort gate)” value is recorded as “low polyreactivity”.

Regarding “QVQLVESGGGLFQAGGSLRLSCAASGSTFDTNVMGWYRQAPGKERELVAAIDVSGGSTYYADSVKGRFTISRDNAKNTVYLQMNSLKPEDTAVYYCAAEGTTWYYDMDYWGQGTQVTVSS”, the “polyreactivity (PSR sort gate)” value is “low polyreactivity”. For the sequence “QVQLVESGGGLFQAGGSLRLSCAASGSTFGFNAMGWYRQAPGKEREFVAAINTSGGNTYYADSVKGRFTISRDNAKNTVYLQMNSLKPEDTAVYYCNAREGHLYGYPYGYWGQGTQVTVSS”, the “polyreactivity (PSR sort gate)” value is “low polyreactivity”.

Take “QVQLVESGGGLFQAGGSLRLSCAASGSTFGSYAMGWYRQAPAKERELVADISSRGASTYYADSVKGRFTISRDNEKNTVYLEMISLKPEDTAVYYCNTTGEYYDYWGHGTQVTVSS”: the “polyreactivity (PSR sort gate)” value is recorded as “low polyreactivity”. Take “QVQLVESGGGLFQAGGSLRLSCAASGSTFLIYAMGWYRQAPGKERELVATIRSGGASTNYADSVKGRFTISRDNAKNTVYLQMNSLKPEDTAVYYCPARCWTWTYQSSYVYWGQGTQVTVSS”: the “polyreactivity (PSR sort gate)” value is reported as “low polyreactivity”. For the sequence “QVQLVESGGGLFQAGGSLRLSCAASGSTFYAYAIGWYRQAPGKERELVAAITLSGGSTYYADSVKGRFTISRDNAKNTVYLQMNSLKPEDTAVYYCAADQLRCGDYYWGQGTQVTVSS”, the “polyreactivity (PSR sort gate)” value is on record as “high polyreactivity”. In the case of “QVQLVESGGGLFQAGGSLRLSCAASGYIFGSYVMGWYIQAPGKERELVAAISRRGGSTYYADSVKGRFTISRDNAKNTVYLQMNSLNPEDTAVYYCAADDGQYAKYDYWGQGTQVTVSS”, the “polyreactivity (PSR sort gate)” value was “high polyreactivity”. Then “QVQLVESGGGLFQAGGSLRLSCAASGYIFVRYAMGWYRQAPGKEREFVAAISSSGGSTRYADSVKGRFTISRDKAKYNVYLQMNSLKPEDTAVYYCAATRVARDGSPMYYWGQGTQVTVSS”, with “high polyreactivity”. Then “QVQLVESGGGLFQAGGSLRLSCAPSGFTFSNYAMGWYRQAPGKEREFVAAISGTGGSTYYADSVKGRFTISRDNAKNTVYLQMNSLKPEDTEVYYCYFYFRRQYEHEYWGQGTQVTVSS”, with “high polyreactivity”; and “QVQLVESGGGLFQAGGSLRLTCAASGRIFTHYSMGWYRQPPGKEREFVAAISRSGARTYYADSVKGRFTISRDYAKNTVYLQMYSLKREVTSVYYCAKDQVDSPRDRYQKLDFWGQGTQVTVSS”, with “low polyreactivity”. For “QVQLVESGGGLFQAGGSLRVSCAASGFTFVYYAMGWYRQAPGKERELVAAITASGGSTYYADSVQGRFTISRDNAKNTVYLQMNSLKPEDSADYYCNTVRYVRHYRQSGYWGQGTQVTVSS” the value was “high polyreactivity”; for “QVQLVESGGGLFQAGGSLRVSCAASGITFRDNGMVWYRQAPGKERELVAAITSGGSTYYADSVKGSCTISRDHAKNTVYFQMNSLKPEDTAVYLCAAKRIKRRGWRQLSWYDSWGQGTQVTVSS”, “high polyreactivity”. Take “QVQLVESGGGLFQAGGSLRVSSAPSGITFYGYAMGWYRQAPGKERELVAAINRGGTGTYYADSVKGRFTISRYNAKNTVYLQMNSLTPEDTAVYYCNKAGYPLADPTAGKRQFDDWGQGTEVTVSS”: the “polyreactivity (PSR sort gate)” value is reported as “low polyreactivity”. Then “QVQLVESGGGLFQAGGSLSLSCAASGRNLSGYDMGWYRQAQGKERELVAAITRGGTTYYADSVKGRFTISRDNSKNTVYLQMNSLKADDTAVVYTVSYAQYDYWGQGTQVTVSS”, with “low polyreactivity”. On to “QVQLVESGGGLGKAGGSLRLSCAASGFIFYWNAMGWYRQAPGKEREFVATITWSGGSTYYADSVKGRFTISRDYAKNTVYLQMNSLKPEDTAFYYCAAEAPVQPFYVFNSGIYELDYWGQGTQVTVSS”, for which the “polyreactivity (PSR sort gate)” value is “low polyreactivity”. Turning to “QVQLVESGGGLGKAVGSLRLSCAASGSTFEYYALGWYRLAPGTETELVAAISTAGSTYYADSVKGRFTISRDNAKYTVYLQMNSLKPEDTGVYYCAVDPSPRSYYNYYWGQGTQVTVSS”, the “polyreactivity (PSR sort gate)” value was “high polyreactivity”.

With “QVQLVESGGGLGQAGGRLRLSCAASGRTFAQNAMGWNRKAPGKERELVAAITSSGGSTYYADSVKGRFTISRDNAKNTVYLQMNSLKPEDTAVYYCAADRHYGTEYAYDYWGQGTQVTVSS”, the “polyreactivity (PSR sort gate)” value is given as “low polyreactivity”. For “QVQLVESGGGLGQAGGRLRLSCAASGRTFGYNAMGWYRQAPGKERELVAAISSGGSTNYADSVKGRFTISRDNAKNTVYLQMNSLKPEDTAVYYCAARRWRYVGTRYDYWGQGTQVTVSS” the value was “high polyreactivity”; for “QVQLVESGGGLGQAGGSLLLSCAASGTFYTYAMGWYRQAPAKERELVAAINGGGRTYYADSVKGRITISRDNAKNSVYFQMNSLKPEDTAVYYCAAVRRISRYDYWGQGTQVTVSS”, “high polyreactivity”. Then “QVQLVESGGGLGQAGGSLRISCAASGRTFGIYAMGCYRQAPGKLRELVATISWRGGSTYYADSVKGRFTISRDNAKNTVYLQMNSLTPEDTAVYYCAAGPGYLILISDIYGYWGQGTQVTVSS”, with “low polyreactivity”. For “QVQLVESGGGLGQAGGSLRLICAASGIIFLYYAMGWYRQAPGKERELVAAITRSGGNTYYADSVKGRFTISRDNAKNTVYLQMNSLIPEDTAVYYCAARHNSVRGRGYGYDYWGQGTQVTVSS” the value was “low polyreactivity”.

For “QVQLVESGGGLGQAGGSLRLSCAASGFIFGLNAMGWYRQAPGKERELVAAISSIGGSTYYADSVKGRFTISRDNAMNTVYLQMNSLIPEDTAVYYCAKRYGGRRSWYDYWGQGSQVTVSS”, the “polyreactivity (PSR sort gate)” value is “high polyreactivity”. For “QVQLVESGGGLGQAGGSLRLSCAASGFIFTPYTMGWYRQAPGKERELVAAITDGSSTYYADSVKGRFTISRDNAKNTVYLQMNSLKQEDTAVYYCNDDGKPPYISWLYDYWGLGTQVTVSS”, the “polyreactivity (PSR sort gate)” value is listed as “low polyreactivity”. For the sequence “QVQLVESGGGLGQAGGSLRLSCAASGLIFFFYAMGWYRQAPGKERELVASISGGGITYYADSVKGRFTISRDNAKNTVYLQMYSLKPEDTAVIKNDFWGQGTQVTVSS”, the “polyreactivity (PSR sort gate)” value is “low polyreactivity”. For “QVQLVESGGGLGQAGGSLRLSCAASGRIFSQNAMGWYRQAPGNERELVAAITGNGGDTYYADSVKGRFTISRDNAKNTVYLQMNSLKPEDTAVYYCAARVPPVYGRVGGYHYWGPGTQVTVSS” the value was “low polyreactivity”.

Source of the values: the nanobody polyreactivity screen of Harvey et al. (2022).
